Laboratory results published in patent publication US11278600B2, “Human alpha-galactosidase variants” (Codexis, Inc., priority 2014, dated 2022).

Tests used:
Format in all cases: biochemical
[1] = HTP-analysis of supernatants pretreated with acid (MUGal hydrolysis); conditions: activity of the variant/activity of Rd7BB (SEQ ID NO: 44); challenge at pH 3.5
How it was run: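 Supernatants from INVSc1 yeast secreting GLA variants were challenged at 37° C. for 1-3 h in McIlvaine buffer at pH 3.3-4.3. Residual activity was then measured on 4 mM MUGal substrate stock at pH 4.8 with citrate buffer pH 4.3, over 30-180 min at 37° C. Reactions were quenched with sodium carbonate and read by fluorescence (Ex 355/Em 448 nm).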

[2] = HTP-analysis of supernatants pretreated with base (MUGal hydrolysis); conditions: activity of the variant/activity of Rd7BB (SEQ ID NO: 44); challenge at pH 7.5
How it was run: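 GLA variants were secreted by transformed INVSc1 yeast grown 66-84 h at 30° C. Supernatants were exposed to neutral-to-basic buffers (pH 7.0-9.7) at 37° C for 1-18 h, then assayed with MUGal in acidic citrate/McIlvaine buffer, with fluorescence read after quenching.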

[3] = HTP-analysis of yeast culture supernatants, no challenge (MUGal hydrolysis); conditions: activity of the variant/activity of Rd7BB (SEQ ID NO: 44)
How it was run: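 GLA variants were expressed in INVSc1 yeast grown in SD-Ura broth with glucose at 30° C., and culture supernatants were collected after 66-84 h. Supernatant was mixed with McIlvaine buffer pH 4.8 and MUGal (2 mM stock) in 50 mM citrate, 200 mM KCl, pH 4.6, incubated at 37° C. for 30-180 minutes, then quenched with sodium carbonate.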

B1: 672 (protein)
chain: LDNGLARTPTMGWLHWERFMCNLDCQEEPDSCISEKLFMEMAERMVTEGWKDAGYEYLCIDDCWMAPQRDSEGRLQADPQRFPHGIRQLANHVHSKGLKLGIYADVGNKTCAGFPGSFGYYDIDAQTFADWGVDLLKFDGCYCYSLENLADGYKHMSLALNRTGRPIVYSCEWPLYMWPFQKPNYTEIRQYCNHWRNFADIDDSWASIKSILDWTSRNQERIVDVAGPGGWNDPDMLVIGNFGLSWDQQVTQMALWAIMAAPLFMSNDLRAISPQAKALLQDKDVIAINQDPLGKQGYQLRKGDNFEVWERPLSGDAWAVAIINRQEIGGPRSYTIPVASLGKGVACNPACFITQLLPVKRQLGFYNWTSRLKSHINPTGTVLLQLENTMQTSLKDLL
modifications: Synthetic Polypeptide sequence of Variant No. 672 of mature Human GLA
With B1 the “Relative Activity of GLA Variants After Challenge at pH 3.5” value (shortened to “Relative Activity … at pH 3.5”) [1] was “+ (>0.5 to 1.5 relative activity over Rd7BB (SEQ ID NO: 44))”, the “Relative Activity of GLA Variants After Challenge at pH 7.5” value (“Relative Activity … at pH 7.5” below) [2] was “− (<0.5 relative activity to Rd7BB (SEQ ID NO: 44))” and the “Relative Activity of GLA Variants After No Challenge (NC)” value [3] was “+ (>0.5 to 1.5 relative activity over Rd7BB (SEQ ID NO: 44))”.

B2: 640 (protein)
chain: LDNGLARTPPMGWLHWERFMCNLDCQEEPDSCISEKLFEEMADRMVTEGWKDAGYEYLCIDDCWMAPQRDSEGRLQADPQRFPHGIRQLANHVHSKGLKLGIYADVGNKTCAGFPGSFGYYDIDAQTFADWGVDLLKFDGCYCDSLENLADGYKHMSLALNRTGRPIVYSCEWPLYMWPFQKPNYTEIRQYCNHWRNFADIDDSWASIKSILDWTSRNQERIVDVAGPGGWNDPDMLVIGNFGLSWDQQVTQMALWAIMAAPLFMSNDLRAISPQAKALLQDKDVIAINQDPLGKQGYQLRKGDNFEVWERPLSGDAWAVAIINRQEIGGPRSYTIPVASLGKGVACNPACFITQLLPVKRQLGFYNWTSRLKSHINPTGTVLLQLENTMQTSLKDLL
modifications: Synthetic Polypeptide sequence of Variant No. 640 of mature Human GLA
In the case of B2, the “Relative Activity … at pH 3.5” value [1] is reported as “+ (>0.5 to 1.5 relative activity over Rd7BB (SEQ ID NO: 44))”, the “Relative Activity … at pH 7.5” value [2] is reported as “+ (>0.5 to 1.5 relative activity over Rd7BB (SEQ ID NO: 44))” and the “Relative Activity of GLA Variants After No Challenge (NC)” value [3] is reported as “+ (>0.5 to 1.5 relative activity over Rd7BB (SEQ ID NO: 44))”.

B3: 675 (protein)
chain: LDNGLARTPTMGWLHWERFMCNLDCQEEPDSCISEKLFMEMAERMVTEGWKDAGYEYLCIDDCWVAPQRDSEGRLQADPQRFPHGIRQLANHVHSKGLKLGIYADVGNKTCAGFPGSFGYYDIDAQTFADWGVDLLKFDGCYCDSLENLADGYKHMSLALNRTGRPIVYSCEWPLYMWPFQKPNYTEIRQYCNHWRNFADIDDSWASIKSILDWTSRNQERIVDVAGPGGWNDPDMLVIGNFGLSWDQQVTQMALWAIMAAPLFMSNDLRAISPQAKALLQDKDVIAINQDPLGKQGYQLRKGDNFEVWERPLSGDAWAVAIINRQEIGGPRSYTIPVASLGKGVACNPACFITQLLPVKRQLGFYNWTSRLKSHINPTGTVLLQLENTMQTSLKDLL
modifications: Synthetic Polypeptide sequence of Variant No. 675 of mature Human GLA
In the case of B3, the “Relative Activity … at pH 3.5” value [1] is reported as “+ (>0.5 to 1.5 relative activity over Rd7BB (SEQ ID NO: 44))”, the “Relative Activity … at pH 7.5” value [2] is reported as “− (<0.5 relative activity to Rd7BB (SEQ ID NO: 44))” and the “Relative Activity of GLA Variants After No Challenge (NC)” value [3] is reported as “+ (>0.5 to 1.5 relative activity over Rd7BB (SEQ ID NO: 44))”.

B4: 673 (protein)
chain: LDNGLARTPTMGWLHWERFMCNLDCQEEPDSCISEKLFMEMAERMVTEGWKDAGYEYLCIDDCWMAPQRDSEGRLQADPQRFPHGIRQLANHVHSKGLKLGIYADVGNKTCAGFPGSFGYYDIDAQTFADWGVDLLKFDGCYCDSLENLADGYKHMSLALNRTGRPIVYSCEWPLYMWPFQKPNYTEIRQYCNHWRNFADIDDSWASIKSILDWTSRNQERIVDVAGPGGWNDPDMLVIGNFGLSWDQQVTQMALWAIMAAPLFMSNDLRAISPQAKALLQDKDVIAINQDPLGKQGYQLRKGDNFEVWERPLSGDAWAVAIINRQEIGGPRSYTIPVASLGKGVACNPACFITQLLPVKRQLGFYNWTSRLKSHIYPTGTVLLQLENTMQTSLKDLL
modifications: Synthetic Polypeptide sequence of Variant No. 673 of mature Human GLA
For B4, the “Relative Activity … at pH 3.5” value [1] was “+ (>0.5 to 1.5 relative activity over Rd7BB (SEQ ID NO: 44))”, the “Relative Activity … at pH 7.5” value [2] was “− (<0.5 relative activity to Rd7BB (SEQ ID NO: 44))” and the “Relative Activity of GLA Variants After No Challenge (NC)” value [3] was “+ (>0.5 to 1.5 relative activity over Rd7BB (SEQ ID NO: 44))”.

B5: 678 (protein)
chain: LDNGLARTPTMGWLHWERFMCNLDCQEEPDSCISEKLFMEMAERMVTEGWKDAGYEYLCIDDCWMAPQRDSEGRLQADPQRFPHGIRQLANHVHSKGLKLGIYADVGNKTCAGFPGSFGYYDIDAQTFADWGVDLLKFDGCYCDSLENLADGYKHMSLALNRTGRPIVYSCEWPLYMWPFQKPNYTEIRQYCNHWRNFADIDDSWASIKSILDWTSRNQERIVDVAGPGGWNDPDMLVIGNFGLSWDQQVTQWALWGIMAAPLFMSNDLRAISPQARALLLDKDVIAINQDPLGKQGYQLRKGDNFEVWERPLSGDAWDVAIINRQEIGGPRSYTIPVASLGKGVACNPACFITQLLPVKRQLGFYNWTSRLKSHINPTGTVLLQLENTMQTSLKDLL
modifications: Synthetic Polypeptide sequence of Variant No. 678 of mature Human GLA
For B5, the “Relative Activity … at pH 3.5” value [1] was “− (<0.5 relative activity to Rd7BB (SEQ ID NO: 44))”, the “Relative Activity … at pH 7.5” value [2] was “− (<0.5 relative activity to Rd7BB (SEQ ID NO: 44))” and the “Relative Activity of GLA Variants After No Challenge (NC)” value [3] was “− (<0.5 relative activity to Rd7BB (SEQ ID NO: 44))”.

B6: 676 (protein)
chain: LDNGLARTPTMGWLHWERFMCNLDCQEEPDSCISEKLFEEMAERMVTEGWKDAGYEYLCIDDCWMAPQRDSEGRLQADPQRFPHGIRQLANHVHSKGLKLGIYADVGNKTCAGFPGSFGYYDIDAQTFADWGVDLLKFDGCYCDSLENLADGYKHMSLALNRTGRPIVYSCEWPLYMWPFQKPNYTEIRQYCNHWRNFADIDDSWASIKSILDWTSRNQERIVDVAGPGGWNDPDMLVIGNFGLSWDQQVTQMALWAIMAAPLFMSNDLRAISPQAKALLQDKDVIAINQDPLGKQGYQLRKGDNFEVWERPLSGDAWAVAIINRQEIGGPRSYTIPVASLGKGVACNPACFITQLLPVKRQLGFYNATSRLKSHINPTGTVLLQLENTMQTSLKDLL
modifications: Synthetic Polypeptide sequence of Variant No. 676 of mature Human GLA
With B6 the “Relative Activity … at pH 3.5” value [1] was “+ (>0.5 to 1.5 relative activity over Rd7BB (SEQ ID NO: 44))”, the “Relative Activity … at pH 7.5” value [2] was “+ (>0.5 to 1.5 relative activity over Rd7BB (SEQ ID NO: 44))” and the “Relative Activity of GLA Variants After No Challenge (NC)” value [3] was “+ (>0.5 to 1.5 relative activity over Rd7BB (SEQ ID NO: 44))”.

B7: 674 (protein)
chain: LDNGLARTPTMGWLHWERFMCNLDCQEEPDSCISEKLFMEMAERMVTEGWKDAGYEYLCIDDCWMAPQRDSEGRLQADPQRFPHGIRQLANHVHSKGLKLGIYADVGNKTCAGFPGSFGYYDIDAQTFADWGVDLLKFDGCYCDSLENLADGYKHMSLALNRTGRPIVYSCEWPLYMWPFQKPNYTEIRQYCNHWRNFADIDDSWASIKSILDWTSRNQERIVDVAGPGGWNDHDMLVIGNFGLSWDQQVTQMALWAIMAAPLFMSNDLRAISPQAKALLQDKDVIAINQDPLGKQGYQLRKGDNFEVWERPLSGDAWAVAIINRQEIGGPRSYTIPVASLGKGVACNPACFITQLLPVKRQLGFYNWTSRLKSHINPTGTVLLQLENTMQTSLKDLL
modifications: Synthetic Polypeptide sequence of Variant No. 674 of mature Human GLA
For B7, the “Relative Activity … at pH 3.5” value [1] was “− (<0.5 relative activity to Rd7BB (SEQ ID NO: 44))”, the “Relative Activity … at pH 7.5” value [2] was “− (<0.5 relative activity to Rd7BB (SEQ ID NO: 44))” and the “Relative Activity of GLA Variants After No Challenge (NC)” value [3] was “− (<0.5 relative activity to Rd7BB (SEQ ID NO: 44))”.

B8: 677 (protein)
chain: LDNGLARTPTMGWLHWERFMCNLDCQEEPDSCISEKLFMEMAERMVTEGWKDAGYEYLCIDDCWMAPQRDSEGRLQADPQRFPHGIRQLANHVHSKGLKLGIYADVGNKTCAGFPGSFGYYDIDAQTFADWGVDLLKFDGCYCDSLENLADGYKHMSLALNRTGRPIVYSCEWPLYMWPFQKPNYTEIRQYCNHWRNFADIDDSWASIKSILDWTSRNQERIVDVAGPGGWNDPDMLVIGNFGLSWDQQVTQWALWAIMAAPLFMSNDLRAIDSQARALLQDKDVIAINQDPLGKQGYQLRKGDNFEVWERPLSGDAWAVAIINRQEIGGPRSYTIPVASLGKGVACNPACFITQLLPVKRQLGFYNWTSRLKSHINPTGTVLLQLENTMQTSLKDLL
modifications: Synthetic Polypeptide sequence of Variant No. 677 of mature Human GLA
For B8, the “Relative Activity … at pH 3.5” value [1] was “+ (>0.5 to 1.5 relative activity over Rd7BB (SEQ ID NO: 44))”, the “Relative Activity … at pH 7.5” value [2] was “− (<0.5 relative activity to Rd7BB (SEQ ID NO: 44))” and the “Relative Activity of GLA Variants After No Challenge (NC)” value [3] was “+ (>0.5 to 1.5 relative activity over Rd7BB (SEQ ID NO: 44))”.
